From IntAct's records for PubMed 17299042

B1: Protein BMH2 (Saccharomyces cerevisiae), P34730 (parent)
chain: MSQTREDSVYLAKLAEQAERYEEMVENMKAVASSGQELSVEERNLLSVAYKNVIGARRASWRIVSSIEQKEESKEKSEHQVELIRSYRSKIETELTKISDDILSVLDSHLIPSATTGESKVFYYKMKGDYHRYLAEFSSGDAREKATNSSLEAYKTASEIATTELPPTHPIRLGLALNFSVFYYEIQNSPDKACHLAKQAFDDAIAELDTLSEESYKDSTLIMQLLRDNLTLWTSDISESGQEDQQQQQQQQQQQQQQQQQAPAEQTQGEPTK

Variants of: B1
Conditions: with rad53_yeast RAD53, P22216
rad53_yeast RAD53, P22216, sequence (P22216 whole entry): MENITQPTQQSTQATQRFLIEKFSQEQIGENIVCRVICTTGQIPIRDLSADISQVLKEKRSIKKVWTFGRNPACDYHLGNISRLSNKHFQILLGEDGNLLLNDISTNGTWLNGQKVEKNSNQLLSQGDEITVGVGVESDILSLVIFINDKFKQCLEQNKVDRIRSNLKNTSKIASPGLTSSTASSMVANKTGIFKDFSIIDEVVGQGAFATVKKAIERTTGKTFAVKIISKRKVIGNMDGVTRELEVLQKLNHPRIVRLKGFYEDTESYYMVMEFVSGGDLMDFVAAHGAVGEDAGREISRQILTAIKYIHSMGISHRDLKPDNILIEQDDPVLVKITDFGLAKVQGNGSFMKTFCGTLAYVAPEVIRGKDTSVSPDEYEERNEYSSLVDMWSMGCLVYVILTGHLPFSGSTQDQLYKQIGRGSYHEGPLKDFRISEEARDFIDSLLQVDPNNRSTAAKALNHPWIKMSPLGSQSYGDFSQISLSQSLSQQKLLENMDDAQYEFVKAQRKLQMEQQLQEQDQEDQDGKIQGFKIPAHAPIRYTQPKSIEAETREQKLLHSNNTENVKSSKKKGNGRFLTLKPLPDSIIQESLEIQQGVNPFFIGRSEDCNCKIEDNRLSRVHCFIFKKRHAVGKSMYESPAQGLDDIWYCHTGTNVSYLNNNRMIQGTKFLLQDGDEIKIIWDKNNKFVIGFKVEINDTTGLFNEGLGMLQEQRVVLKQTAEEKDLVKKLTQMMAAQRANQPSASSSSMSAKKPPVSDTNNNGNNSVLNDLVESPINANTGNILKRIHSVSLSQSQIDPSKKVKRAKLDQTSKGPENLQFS

| effect of a mutation on the interaction | Variant |
| --- | --- |
| disrupting interaction strength | L225Q |
| disrupting interaction strength | E185D |

The next lines start with the variant.

| Variant | effect of a mutation on the interaction |
| --- | --- |
| K51L | decreasing interaction strength |
| K51R | decreasing interaction strength |
